In patent US20150344570A1 (published 2015):
Numbering of substitutions follows the chain as printed. Numbers in names are those of the source.

T1: FcgRIIb (FcγRIIb) extracellular domain with C-terminal His tag (human, UniProt P31994 43-217)
T1 construct: extracellular domain; not shown: His tag attached to the C terminus
T1 sequence (looked up): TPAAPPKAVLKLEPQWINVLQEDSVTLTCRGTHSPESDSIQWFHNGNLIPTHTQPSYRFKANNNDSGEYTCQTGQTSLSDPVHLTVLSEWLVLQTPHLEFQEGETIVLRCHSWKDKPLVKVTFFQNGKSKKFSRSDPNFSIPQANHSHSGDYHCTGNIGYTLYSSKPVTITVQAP

T2: FcγRIIa H (human FcγRIIa, allotype H131, extracellular domain with C-terminal His tag) (human, UniProt P12318 34-217)
T2 construct: extracellular domain; Soluble extracellular domain expressed in FreeStyle293 cells; used as analyte in Biacore; also called FcgRIIa H; FcγRIIa type H; not shown: His tag attached to the C terminus
T2 sequence (looked up): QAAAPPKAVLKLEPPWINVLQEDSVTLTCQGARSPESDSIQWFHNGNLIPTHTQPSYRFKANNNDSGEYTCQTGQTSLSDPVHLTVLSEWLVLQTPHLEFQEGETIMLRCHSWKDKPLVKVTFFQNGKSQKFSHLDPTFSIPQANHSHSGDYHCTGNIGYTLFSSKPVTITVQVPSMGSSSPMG

B1: H240-Kn061/H240-Hl071/L73-k0 variant with W236Y in H240-Kn061 (antibody, human IgG1, kappa)
heavy 1: QDQLVQSGAEVKKPGASVKVSCKASGFNIKDTYIQWVRQAPGQGLEWMGRIDPLRKQTKYREKFEGRVTITADTSTNTAYMELSSLRSEDTAVYYCVRSGREFDYWGQGTLVTVSSASTKGPSVFPLAPSSKSTSGGTAALGCLVKDYFPEPVTVSWNSGALTSGVHTFPAVLQSSGLYSLSSVVTVPSSSLGTQTYICNVNHKPSNTKVDKKVEPKSCDKTHTCPPCPAPEYYYGPSVFLFPPKPKDTLMISRTPEVTCVVVDVSDEDPEVKFNWYVDGVEVHNAKTKPREEQYNATYRVVSVLTVLHQDWLNGKEYKCKVSNKALPAPIEKTISKAKGQPREPQVCTLPPSRDELTKNQVSLWCLVKGFYPSDIAVEWESNGQPENNYKTTPPVLDSDGSFFLYSKLTVDKSRWQQGNVFSCSVMHEALHNHYTQKSLSLSP
heavy 2: QDQLVQSGAEVKKPGASVKVSCKASGFNIKDTYIQWVRQAPGQGLEWMGRIDPLRKQTKYREKFEGRVTITADTSTNTAYMELSSLRSEDTAVYYCVRSGREFDYWGQGTLVTVSSASTKGPSVFPLAPSSKSTSGGTAALGCLVKDYFPEPVTVSWNSGALTSGVHTFPAVLQSSGLYSLSSVVTVPSSSLGTQTYICNVNHKPSNTKVDKKVEPKSCDKTHTCPPCPAPELLGGPSVFLFPPKPKDTLMISRTPEVTCVVVDVSHEDPEVKFNWYVDGVEVHNAKTKPREEQYNSTYRVVSVLTVLHQDWLNGKEYKCKVSNDALPMPIEETISKAKGQPREPQVYTLPPSRCELTKNQVSLSCAVKGFYPSDIAVEWESNGQPENNYKTTPPVLDSDGSFFLVSKLTVDKSRWQQGNVFSCSVMHEALHNHYTQKSLSLSP
light: DIQMTQSPSSLSASVGDRVTITCRASQDIHKYIAWYQQKPGQAPRLLIQYTSTLQPGVPSRFSGSGSGTDYTFTISSLQPEDIATYYCLQYEQLRTFGGGTKVEIKRTVAAPSVFIFPPSDEQLKSGTASVVCLLNNFYPREAKVQWKVDNALQSGNSQESVTEQDSKDSTYSLSSTLTLSKADYEKHKVYACEVTHQGLSSPVTKSFNRGEC
notes: anti-epiregulin heterodimerized IgG1; also called H240-Kn061 W236Y
B2: H240-Kn061/H240-Hl071/L73-k0 variant with Y235N in H240-Kn061 (antibody, human IgG1, kappa)
heavy 1: B1 heavy 1 with Y234N, Y235W
heavy 2: B1 heavy 2
light: B1 light
notes: anti-epiregulin heterodimerized IgG1; also called H240-Kn061 Y235N
B3: H240-Kn061/H240-Hl071/L73-k0 variant with Y234G in H240-Kn061 (antibody, human IgG1, kappa)
heavy 1: B1 heavy 1 with Y233G, Y235W
heavy 2: B1 heavy 2
light: B1 light
notes: anti-epiregulin heterodimerized IgG1; also called H240-Kn061 Y234G
B4: H240-Kn061/H240-Hl071/L73-k0 variant with Y235E in H240-Kn061 (antibody, human IgG1, kappa)
heavy 1: B1 heavy 1 with Y234E, Y235W
heavy 2: B1 heavy 2
light: B1 light
notes: anti-epiregulin heterodimerized IgG1; also called H240-Kn061 Y235E
B5: H240-Kn061/H240-Hl071/L73-k0 variant with Y234H in H240-Kn061 (antibody, human IgG1, kappa)
heavy 1: B1 heavy 1 with Y233H, Y235W
heavy 2: B1 heavy 2
light: B1 light
notes: anti-epiregulin heterodimerized IgG1; also called H240-Kn061 Y234H
B6: H240-Kn061/H240-Hl071/L73-k0 variant with Y235L in H240-Kn061 (antibody, human IgG1, kappa)
heavy 1: B1 heavy 1 with Y234L, Y235W
heavy 2: B1 heavy 2
light: B1 light
notes: anti-epiregulin heterodimerized IgG1; also called H240-Kn061 Y235L
B7: H240-Kn061/H240-Hl071/L73-k0 variant with Y235M in H240-Kn061 (antibody, human IgG1, kappa)
heavy 1: B1 heavy 1 with Y234M, Y235W
heavy 2: B1 heavy 2
light: B1 light
notes: anti-epiregulin heterodimerized IgG1; also called H240-Kn061 Y235M
B8: H240-Kn061/H240-Hl071/L73-k0 variant with Y235T in H240-Kn061 (antibody, human IgG1, kappa)
heavy 1: B1 heavy 1 with Y234T, Y235W
heavy 2: B1 heavy 2
light: B1 light
notes: anti-epiregulin heterodimerized IgG1; also called H240-Kn061 Y235T
B9: H240-Kn061/H240-Hl071/L73-k0 variant with Y234S in H240-Kn061 (antibody, human IgG1, kappa)
heavy 1: B1 heavy 1 with Y233S, Y235W
heavy 2: B1 heavy 2
light: B1 light
notes: anti-epiregulin heterodimerized IgG1; also called H240-Kn061 Y234S
B10: H240-Kn061/H240-Hl071/L73-k0 variant with Y234A in H240-Kn061 (antibody, human IgG1, kappa)
heavy 1: B1 heavy 1 with Y233A, Y235W
heavy 2: B1 heavy 2
light: B1 light
notes: anti-epiregulin heterodimerized IgG1; also called H240-Kn061 Y234A
B11: H240-Kn061/H240-Hl071/L73-k0 variant with Y235F in H240-Kn061 (antibody, human IgG1, kappa)
heavy 1: B1 heavy 1 with Y234F, Y235W
heavy 2: B1 heavy 2
light: B1 light
notes: anti-epiregulin heterodimerized IgG1; also called H240-Kn061 Y235F
B12: H240-Kn061/H240-Hl071/L73-k0 variant with Y235W in H240-Kn061 (antibody, human IgG1, kappa)
heavy 1: B1 heavy 1 with Y234W, Y235W
heavy 2: B1 heavy 2
light: B1 light
notes: anti-epiregulin heterodimerized IgG1; also called H240-Kn061 Y235W
B13: GpH7-A5/GpH7-B3 variant T335_04F/GpL16-k0 (heterodimerized antibody, He Ab) (antibody, human IgG1, kappa)
heavy 1: not shown
heavy 2: not shown
light: DIVMTQSPLSLPVTPGEPASISCQASESLVHSNRNTYLHWYLQKPGQSPQLLIYKVSNRFSGVPDRFSGSGSGTDFTLKISRVEAEDVGVYYCSQNTHVPPTFGQGTKVEIERTVAAPSVFIFPPSDEQLKSGTASVVCLLNNFYPREAKVQWKVDNALQSGNSQESVTEQDSKDSTYSLSSTLTLSKADYEKHKVYACEVTHQGLSSPVTKSFNRGEC
notes: Anti-glypican-3 IgG1 heterodimer; the alteration stands in one H chain only; EU numbering; also called T335_04F He Ab; T335F in one H chain
B14: GpH7-A5/GpH7-B3 variant Y300_07I/GpL16-k0 (heterodimerized antibody, He Ab) (antibody, human IgG1, kappa)
heavy 1: not shown
heavy 2: not shown
light: B13 light
notes: Anti-glypican-3 IgG1 heterodimer; the alteration stands in one H chain only; EU numbering; also called Y300_07I He Ab; Y300I in one H chain
B15: GpH7-A5/GpH7-B3 variant T335_06M/GpL16-k0 (heterodimerized antibody, He Ab) (antibody, human IgG1, kappa)
heavy 1: not shown
heavy 2: not shown
light: B13 light
notes: Anti-glypican-3 IgG1 heterodimer; the alteration stands in one H chain only; EU numbering; also called T335_06M He Ab; T335M in one H chain
B16: GpH7-A5/GpH7-B3 variant T335_05P/GpL16-k0 (heterodimerized antibody, He Ab) (antibody, human IgG1, kappa)
heavy 1: not shown
heavy 2: not shown
light: B13 light
notes: Anti-glypican-3 IgG1 heterodimer; the alteration stands in one H chain only; EU numbering; also called T335_05P He Ab; T335P in one H chain
B17: GpH7-A5/GpH7-B3 variant Y300_06M/GpL16-k0 (heterodimerized antibody, He Ab) (antibody, human IgG1, kappa)
heavy 1: not shown
heavy 2: not shown
light: B13 light
notes: Anti-glypican-3 IgG1 heterodimer; the alteration stands in one H chain only; EU numbering; also called Y300_06M He Ab; Y300M in one H chain
B18: GpH7-A5/GpH7-B3 variant Y300_08L/GpL16-k0 (heterodimerized antibody, He Ab) (antibody, human IgG1, kappa)
heavy 1: not shown
heavy 2: not shown
light: B13 light
notes: Anti-glypican-3 IgG1 heterodimer; the alteration stands in one H chain only; EU numbering; also called Y300_08L He Ab; Y300L in one H chain
B19: GpH7-A5/GpH7-B3 variant T335_09D/GpL16-k0 (heterodimerized antibody, He Ab) (antibody, human IgG1, kappa)
heavy 1: not shown
heavy 2: not shown
light: B13 light
notes: Anti-glypican-3 IgG1 heterodimer; the alteration stands in one H chain only; EU numbering; also called T335_09D He Ab; T335D in one H chain
B20: GpH7-A5/GpH7-B3 variant T335_08L/GpL16-k0 (heterodimerized antibody, He Ab) (antibody, human IgG1, kappa)
heavy 1: not shown
heavy 2: not shown
light: B13 light
notes: Anti-glypican-3 IgG1 heterodimer; the alteration stands in one H chain only; EU numbering; also called T335_08L He Ab; T335L in one H chain

biological target: T1, FcgRIIb (FcγRIIb) extracellular domain …; test: SPR (Biacore); KD of H240-Kn061/H240-Hl071/L73-k0 divided by KD of the variant
Protocol: (§1) The antibodies were assessed for the binding to each FcgR. […] The resultant value was defined as relative KD, and used as an assessment indicator.
(§2) Analysis of interaction between objective antibody and the FcγR was carried out using Biacore T100 (GE Healthcare), Biacore T200, Biacore A100, and Biacore 4000. HBS-EP+ (GE Healthcare) was used as the running buffer, and the measurement temperature was set to 25° C. Chips produced by immobilizing the antigen peptide by the amine coupling method to a Series S sensor Chip CM5 (GE Healthcare), chips produced by allowing preliminarily biotinylated antigen peptides to interact with and immobilize onto a Series S Sensor Chip SA (certified) (GE Healthcare), chips produced by immobilizing Protein L (ACTIGEN, BioVision) to Series S Sencor Chip CM5 (GE Healthcare), or chips produced by immobilizing Protein A/G (Thermo Scientific) to Series S Sencor Chip CM5 (GE Healthcare) were used. Antibodies of interest were captured onto these chips, and allowed to interact to each FcγR diluted with running buffer.

relative KD	Binder
0.8 ratio	B1
0.7 ratio	B2
0.9 ratio	B3
0.8 ratio	B4
1.3 ratio	B5
0.9 ratio	B6
0.7 ratio	B7
0.6 ratio	B8
1 ratio	B9
1.2 ratio	B10
1.2 ratio	B11
1.3 ratio	B12

biological target: T3, FcgRIIIa F (FcγRIIIa type F) extracellular domain with C-terminal His tag (human, UniProt P08637 17-208); test: as above
T3 construct: extracellular domain; also called FcγRIIIa F; 3aF; not shown: His tag attached to the C terminus
Protocol: as §1, §2

T3 sequence (P08637 17-208): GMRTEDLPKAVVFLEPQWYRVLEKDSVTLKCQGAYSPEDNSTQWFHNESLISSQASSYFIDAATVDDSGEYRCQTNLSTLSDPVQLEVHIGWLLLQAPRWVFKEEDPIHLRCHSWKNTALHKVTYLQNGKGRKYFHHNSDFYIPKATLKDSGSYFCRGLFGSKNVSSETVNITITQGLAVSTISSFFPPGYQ

relative KD	Binder
0.8 ratio	B1
1.3 ratio	B2
0.8 ratio	B3
2.2 ratio	B4
0.8 ratio	B5
1.8 ratio	B6
1.7 ratio	B7
0.9 ratio	B8
0.9 ratio	B9
0.8 ratio	B10
1.3 ratio	B11
1.1 ratio	B12

biological target: T4, FcgRIIIa V (FcγRIIIa type V) extracellular domain with C-terminal His tag (human, UniProt P08637 17-208); test: as above
T4 construct: extracellular domain; also called FcγRIIIa V; not shown: His tag attached to the C terminus
Protocol: as §1, §2

T4 sequence (P08637 17-208 F176V limits assumed): as the sequence (P08637 17-208) above, with F160V counted along it

relative KD	Binder
1.2 ratio	B1
2 ratio	B2
0.9 ratio	B3
3.2 ratio	B4
0.9 ratio	B5
1.5 ratio	B6
1.8 ratio	B7
1.1 ratio	B8
0.9 ratio	B9
0.9 ratio	B10
1.5 ratio	B11
1.3 ratio	B12

biological target: T2, FcγRIIa H (human FcγRIIa, allotype …); test: SPR (Biacore T100), antibody captured on antigen-peptide chip, FcγRIIa H as analyte; relative binding
Protocol: Analysis of interaction between objective antibody and the FcγR was carried out using Biacore T100 (GE Healthcare). HBS-EP+ (GE Healthcare) was used as the running buffer, and the measurement temperature was set to 25° C. Chips produced by immobilizing the antigen peptide by the amine coupling method to a Series S Sencor Chip CM5 (GE Healthcare), or alternatively, chips produced by allowing preliminarily biotinylated antigen peptides to interact with and immobilize onto a Series S Sensor Chip SA (certified) (GE Healthcare) were used. Antibodies of interest were captured onto an antigen peptide-immobilized chip, and allowed to interact to each FcγR diluted with running buffer. To regenerate and repeatedly use the chip, the antibodies captured on the chip were washed off by reacting 10 mM glycine-HCl, pH 1.5.

He/Con_2aH	Binder
103 relative binding activity (control heterodimerized antibody GpH7-A5/GpH7-B3/GpL16-k0 = 100)	B13
108 relative binding activity (control heterodimerized antibody GpH7-A5/GpH7-B3/GpL16-k0 = 100)	B14
103 relative binding activity (control heterodimerized antibody GpH7-A5/GpH7-B3/GpL16-k0 = 100)	B15
108 relative binding activity (control heterodimerized antibody GpH7-A5/GpH7-B3/GpL16-k0 = 100)	B16
105 relative binding activity (control heterodimerized antibody GpH7-A5/GpH7-B3/GpL16-k0 = 100)	B17
108 relative binding activity (control heterodimerized antibody GpH7-A5/GpH7-B3/GpL16-k0 = 100)	B18
107 relative binding activity (control heterodimerized antibody GpH7-A5/GpH7-B3/GpL16-k0 = 100)	B19
106 relative binding activity (control heterodimerized antibody GpH7-A5/GpH7-B3/GpL16-k0 = 100)	B20
